From patent US20140087995A1 (published 2014)
One block for each binder: values may come before it. Numbered stars: 1 amine (or outer) side, 2 acyl side, 3 side chain; on linkers, the order of the positions; unused ones are H or OH. Bridge positions count the residues as written; N and C are the ends. Side chains are listed from the residue outwards. Ends that are not written are not given here. * marks the point of attachment. C20 diacid = O=C(O)CCCCCCCCCCCCCCCCCCC(=O)*; γGlu = O=C(O)[C@H](CCC(=O)[*:2])N[*:1]; AEEA = NCCOCCOCC(=O)O

What was measured:
[1] = target: T1, rat amylin receptor (rat calcitonin receptor with rat RAMP 3) (rat, UniProt P32214 25-516; Q9JJ73 23-147); test: SPA competition with 125I-rat amylin, membranes with rat calcitonin receptor + rat RAMP3 (Assay VI)
T1 construct: whole, on cells; Used as membranes prepared from the transfected cells; also called rAmylin-R; rAmylin
T1 sequence (looked up) 1: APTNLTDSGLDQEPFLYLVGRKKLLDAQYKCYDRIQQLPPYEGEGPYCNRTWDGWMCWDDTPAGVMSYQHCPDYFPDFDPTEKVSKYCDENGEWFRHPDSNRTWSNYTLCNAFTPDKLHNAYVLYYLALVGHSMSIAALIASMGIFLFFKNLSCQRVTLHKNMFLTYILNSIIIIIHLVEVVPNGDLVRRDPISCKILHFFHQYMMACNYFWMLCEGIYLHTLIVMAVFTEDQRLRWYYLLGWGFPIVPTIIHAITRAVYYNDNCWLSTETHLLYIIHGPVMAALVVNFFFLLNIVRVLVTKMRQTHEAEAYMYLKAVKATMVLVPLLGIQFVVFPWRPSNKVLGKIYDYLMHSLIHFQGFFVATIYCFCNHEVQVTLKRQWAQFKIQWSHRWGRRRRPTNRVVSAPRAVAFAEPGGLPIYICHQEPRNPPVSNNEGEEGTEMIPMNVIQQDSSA
T1 sequence (looked up) 2: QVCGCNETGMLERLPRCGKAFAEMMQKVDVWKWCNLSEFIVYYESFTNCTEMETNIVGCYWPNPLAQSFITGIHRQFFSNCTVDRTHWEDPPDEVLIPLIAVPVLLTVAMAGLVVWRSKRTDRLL

[2] = target: T2, rat calcitonin receptor (rat, UniProt P32214 25-516); test: ratio of binding IC50 at rat calcitonin receptor to IC50 at rat amylin receptor (reference)
T2 construct: whole, on cells; Used as membranes prepared from the transfected cells; also called rCTR; rCT
T2 sequence (looked up): T1 sequence (looked up) 1

[3] = target: T2, rat calcitonin receptor; test: SPA competition with 125I-calcitonin, membranes with rat calcitonin receptor (Assay VIII)
[4] = target: T3, human calcitonin receptor (human, UniProt P30988 25-474); test: ratio of binding IC50 at human calcitonin receptor to IC50 at human amylin receptor (reference)
T3 construct: whole, on cells; Used as membranes prepared from the transfected cells; also called hCTR; hCT
T3 sequence (looked up): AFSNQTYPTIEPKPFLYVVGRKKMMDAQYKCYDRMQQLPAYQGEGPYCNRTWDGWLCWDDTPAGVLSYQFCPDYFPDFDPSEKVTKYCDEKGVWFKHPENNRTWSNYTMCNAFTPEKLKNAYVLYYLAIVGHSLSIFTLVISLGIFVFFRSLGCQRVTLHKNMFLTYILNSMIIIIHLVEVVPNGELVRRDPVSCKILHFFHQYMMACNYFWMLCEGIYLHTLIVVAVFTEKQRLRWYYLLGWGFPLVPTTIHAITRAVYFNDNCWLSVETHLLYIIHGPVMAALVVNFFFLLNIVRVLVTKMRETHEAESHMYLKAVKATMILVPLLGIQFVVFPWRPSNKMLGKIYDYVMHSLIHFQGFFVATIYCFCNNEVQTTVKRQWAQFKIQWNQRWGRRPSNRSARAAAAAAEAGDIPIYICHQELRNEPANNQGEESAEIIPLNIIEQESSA
How it was run: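 Scintillation proximity competition binding on cell membranes at 35 ng/μL with SPA beads, in 50 mM Hepes pH 7.4, 1 mM CaCl2, 5 mM MgCl₂, 0.1% OA, 0.02% Tween20. Incubated 120 min at 25° C with shaking. IC₅₀ from one-site competition fit.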

[5] = target: T4, rat calcitonin receptor (rat, UniProt P32214 25-516); test: SPA competition binding, displacement of 125I-Calcitonin from membranes of BHK tk'ts 13 cells with rat calcitonin receptor (Assay VIII)
T4 construct: whole, on cells; In cell membranes prepared from transiently transfected BHK tk'ts 13 cells (Assay VIII); also called rCTR; rat calcitonin (a) receptor
T4 sequence (looked up): T1 sequence (looked up) 1

[6] = target: T5, rat amylin receptor (rat calcitonin receptor + rat RAMP 3) (rat, UniProt P32214 25-516; Q9JJ73 23-147); test: SPA competition binding, displacement of 125I-rat amylin from membranes of BHK tk'ts 13 cells with rat calcitonin receptor + rat RAMP 3 (Assay VI)
T5 construct: whole, on cells; Receptor complex in cell membranes prepared from transiently transfected BHK tk'ts 13 cells (Assay VI); also called rAmylin-R; rat amylin 3(a) receptor
T5 sequence (looked up) 1: T1 sequence (looked up) 1
T5 sequence (looked up) 2: T1 sequence (looked up) 2

[7] = target: T4, rat calcitonin receptor; test: ratio of binding IC50s: rat calcitonin receptor (Assay VIII) over rat amylin receptor (Assay VI)
[8] = target: T6, human calcitonin receptor (human, UniProt P30988 25-474); test: ratio of binding IC50s: human calcitonin receptor (Assay VII) over human amylin receptor (Assay V)
T6 construct: whole, on cells; Cell membranes from the stably transfected cell line (Assay VII); also called hCTR; hCT
T6 sequence (looked up): T3 sequence (looked up)
Description: The resulting pellet was resuspended, homogenized and centrifuged (20.000 rpm, 15 min) in a buffer containing 20 mM Na-HEPES and 0.1 mM EDTA (pH 7.4, buffer 2). The resulting pellet was resuspended in buffer 2 and protein concentration was measured (BCA protein Assay, Pierce). The homogenate was kept cold during the whole procedure. The membranes were kept at −80° C. until use. The assay was performed in a 384 well Optiplate (PerkinElmer) in a total volume of 40 ul. Membranes were mixed with SPA beads. Final concentration of membranes 35 ng/μL final and SPA beads was 0.05 mg/well. Test-compounds were dissolved in DMSO and further diluted in assay buffer (50 mM Hepes, pH 7.4, 1 mM CaCl2, 5 mM MgCl₂, 0.1% OA and 0.02% Tween20). […] The final mixture was incubated with shaking at 400 rpm for 120 min at 25° C. prior to centrifugation (1500 rpm, 10 min). Samples were analyzed on TopCounter™ (Packard). The IC₅₀ was calculated using (one site binding competition analysis) GraphPad Prism5 as a measure of receptor affinity.
Membranes were prepared in the following way; the cells were rinsed with PBS and incubated with Versene for approximately 5 min before harvesting. The cells were flushed with PBS and the cell-suspension was centrifuged for 5 min at 1000 rpm. Cells were homogenized (Ultrathurrax) in a buffer containing 20 mM Na-HEPES and 10 mM EDTA (pH 7.4) and centrifuged at 20.000 rpm for 15 min. The resulting pellet was resuspended, homogenized and centrifuged (20.000 rpm, 15 min) in a buffer containing 20 mM Na-HEPES and 0.1 mM EDTA (pH 7.4, buffer 2). The resulting pellet was resuspended in buffer 2 and protein concentration was measured (BCA protein Assay, Pierce). The homogenate was kept cold during the whole procedure. The membranes were kept at −80° C. until use. Assay was performed in a 384 well Optiplate (PerkinElmer) in a total volume of 40 ul. Membranes were mixed with SPA beads.

IC50 [1]: 5.45 nM | Ratio rCT/rAmylin binding [2]: 71.3 | IC50 [3]: 388 nM | Ratio hCT/hAmylin binding [4]: 63.4
B1: N^ε1-[2-[2-[2-[[2-[2-[2-[[(4S)-4-carboxy-4-(19-carboxynonadecanoylamino)butanoyl]amino]ethoxy]ethoxy]acetyl]amino]ethoxy]ethoxy]acetyl]-[Arg17,Pro21,Pro27,Arg34 … (peptide)
peptide: K([AEEA-AEEA-γGlu-C20 diacid])CNTATCATQRLANFLRHSSPNFGAIPSSTNVGRNTY-NH2
modifications: disulfide 2-7; N-terminus assumed
SMILES: CC[C@H](C)[C@H](NC(=O)[C@H](C)NC(=O)CNC(=O)[C@H](Cc1ccccc1)NC(=O)[C@H](CC(N)=O)NC(=O)[C@@H]1CCCN1C(=O)[C@H](CO)NC(=O)[C@H](CO)NC(=O)[C@H](Cc1c[nH]cn1)NC(=O)[C@H](CCCNC(=N)N)NC(=O)[C@H](CC(C)C)NC(=O)[C@H](Cc1ccccc1)NC(=O)[C@H](CC(N)=O)NC(=O)[C@H](C)NC(=O)[C@H](CC(C)C)NC(=O)[C@H](CCCNC(=N)N)NC(=O)[C@H](CCC(N)=O)NC(=O)[C@@H](NC(=O)[C@H](C)NC(=O)[C@@H]1CSSC[C@H](NC(=O)[C@@H](N)CCCCNC(=O)COCCOCCNC(=O)COCCOCCNC(=O)CC[C@H](NC(=O)CCCCCCCCCCCCCCCCCCC(=O)O)C(=O)O)C(=O)N[C@@H](CC(N)=O)C(=O)N[C@@H]([C@@H](C)O)C(=O)N[C@@H](C)C(=O)N[C@@H]([C@@H](C)O)C(=O)N1)[C@@H](C)O)C(=O)N1CCC[C@H]1C(=O)N[C@@H](CO)C(=O)N[C@@H](CO)C(=O)N[C@H](C(=O)N[C@@H](CC(N)=O)C(=O)N[C@H](C(=O)NCC(=O)N[C@@H](CCCNC(=N)N)C(=O)N[C@@H](CC(N)=O)C(=O)N[C@H](C(=O)N[C@@H](Cc1ccc(O)cc1)C(N)=O)[C@@H](C)O)C(C)C)[C@@H](C)O
notes: Analogue of human amylin; disulfide and C-terminal amide as told for h-amylin; also called compound 95

IC50 [1]: 2.24 nM | Ratio rCT/rAmylin binding [2]: 71.1 | IC50 [3]: 159 nM | Ratio hCT/hAmylin binding [4]: 104
B2: N^ε1-[2-[2-[2-[[2-[2-[2-[[(4S)-4-carboxy-4-(19-carboxynonadecanoylamino)butanoyl]amino]ethoxy]ethoxy]acetyl]amino]ethoxy]ethoxy]acetyl]-[Arg17,Pro21,Pro27,His34 … (peptide)
peptide: K([AEEA-AEEA-γGlu-C20 diacid])CNTATCATQRLANFLRHSSPNFGAIPSSTNVGHNTY-NH2
modifications: disulfide 2-7; N-terminus assumed
SMILES: CC[C@H](C)[C@H](NC(=O)[C@H](C)NC(=O)CNC(=O)[C@H](Cc1ccccc1)NC(=O)[C@H](CC(N)=O)NC(=O)[C@@H]1CCCN1C(=O)[C@H](CO)NC(=O)[C@H](CO)NC(=O)[C@H](Cc1c[nH]cn1)NC(=O)[C@H](CCCNC(=N)N)NC(=O)[C@H](CC(C)C)NC(=O)[C@H](Cc1ccccc1)NC(=O)[C@H](CC(N)=O)NC(=O)[C@H](C)NC(=O)[C@H](CC(C)C)NC(=O)[C@H](CCCNC(=N)N)NC(=O)[C@H](CCC(N)=O)NC(=O)[C@@H](NC(=O)[C@H](C)NC(=O)[C@@H]1CSSC[C@H](NC(=O)[C@@H](N)CCCCNC(=O)COCCOCCNC(=O)COCCOCCNC(=O)CC[C@H](NC(=O)CCCCCCCCCCCCCCCCCCC(=O)O)C(=O)O)C(=O)N[C@@H](CC(N)=O)C(=O)N[C@@H]([C@@H](C)O)C(=O)N[C@@H](C)C(=O)N[C@@H]([C@@H](C)O)C(=O)N1)[C@@H](C)O)C(=O)N1CCC[C@H]1C(=O)N[C@@H](CO)C(=O)N[C@@H](CO)C(=O)N[C@H](C(=O)N[C@@H](CC(N)=O)C(=O)N[C@H](C(=O)NCC(=O)N[C@@H](Cc1c[nH]cn1)C(=O)N[C@@H](CC(N)=O)C(=O)N[C@H](C(=O)N[C@@H](Cc1ccc(O)cc1)C(N)=O)[C@@H](C)O)C(C)C)[C@@H](C)O
notes: Analogue of human amylin; disulfide and C-terminal amide as told for h-amylin; also called compound 97

IC50 [5]: 86.8 nM | IC50 [6]: 0.659 nM | Ratio rCT/rAmylin binding [7]: 132 | Ratio hCT/hAmylin binding [8]: 7.8
Binder: K([γGlu-γGlu-C20 diacid])CNTATCATQRLAEFLRHSSNNPGAILSSTNVGPETY-NH2 (disulfide 2-7)

IC50 [5]: 23.4 nM | IC50 [6]: 0.205 nM | Ratio rCT/rAmylin binding [7]: 114 | Ratio hCT/hAmylin binding [8]: 18
B3: N^ε1-[(4S)-4-carboxy-4-[[(4S)-4-carboxy-4-(19-carboxynonadecanoylamino)butanoyl]amino]butanoyl]-[Glu14,Arg17,Pro21,Pro27,Pro34,Phe37]-h-amylin (peptide)
peptide: K([γGlu-γGlu-C20 diacid])CNTATCATQRLAEFLRHSSPNFGAIPSSTNVGPNTF-NH2
modifications: disulfide 2-7; N-terminus assumed
SMILES: CC[C@H](C)[C@H](NC(=O)[C@H](C)NC(=O)CNC(=O)[C@H](Cc1ccccc1)NC(=O)[C@H](CC(N)=O)NC(=O)[C@@H]1CCCN1C(=O)[C@H](CO)NC(=O)[C@H](CO)NC(=O)[C@H](Cc1c[nH]cn1)NC(=O)[C@H](CCCNC(=N)N)NC(=O)[C@H](CC(C)C)NC(=O)[C@H](Cc1ccccc1)NC(=O)[C@H](CCC(=O)O)NC(=O)[C@H](C)NC(=O)[C@H](CC(C)C)NC(=O)[C@H](CCCNC(=N)N)NC(=O)[C@H](CCC(N)=O)NC(=O)[C@@H](NC(=O)[C@H](C)NC(=O)[C@@H]1CSSC[C@H](NC(=O)[C@@H](N)CCCCNC(=O)CC[C@H](NC(=O)CC[C@H](NC(=O)CCCCCCCCCCCCCCCCCCC(=O)O)C(=O)O)C(=O)O)C(=O)N[C@@H](CC(N)=O)C(=O)N[C@@H]([C@@H](C)O)C(=O)N[C@@H](C)C(=O)N[C@@H]([C@@H](C)O)C(=O)N1)[C@@H](C)O)C(=O)N1CCC[C@H]1C(=O)N[C@@H](CO)C(=O)N[C@@H](CO)C(=O)N[C@H](C(=O)N[C@@H](CC(N)=O)C(=O)N[C@H](C(=O)NCC(=O)N1CCC[C@H]1C(=O)N[C@@H](CC(N)=O)C(=O)N[C@H](C(=O)N[C@@H](Cc1ccccc1)C(N)=O)[C@@H](C)O)C(C)C)[C@@H](C)O
